Laboratory results taken from patent US8158376B2, “Bisubstrate fluorescent probe binding to protein kinases” (University of Tartu, priority 2006, dated 2012).
Read-outs that look alike come from different tables or passages of the source.

Legend:
Assay in all cases: Kinase selectivity panel
Assay type in all cases: biochemical
Aurora B = Aurora B (Homo sapiens, UniProt Q96GD4); settings: read-out: residual activity (%) Aurora B
Description: (§1) The panel of kinases included all 52 kinases available for testing.
(§2) The assay of protein kinases was performed at 30° C. as described previously [Davies et al., Biochem. J. 351 (2000) 95; Murray et al., Biochem. J. 384 (2004) 477].

CAMK-1 = CAMK-1 (Homo sapiens, UniProt Q14012); settings: read-out: residual activity (%) CAMK-1
Description: as §1, §2

CHK1 = biological target: T1, CHK1 (Homo sapiens, UniProt O14757); settings: read-out: residual activity (%) CHK1
T1 sequence (O14757 1-476): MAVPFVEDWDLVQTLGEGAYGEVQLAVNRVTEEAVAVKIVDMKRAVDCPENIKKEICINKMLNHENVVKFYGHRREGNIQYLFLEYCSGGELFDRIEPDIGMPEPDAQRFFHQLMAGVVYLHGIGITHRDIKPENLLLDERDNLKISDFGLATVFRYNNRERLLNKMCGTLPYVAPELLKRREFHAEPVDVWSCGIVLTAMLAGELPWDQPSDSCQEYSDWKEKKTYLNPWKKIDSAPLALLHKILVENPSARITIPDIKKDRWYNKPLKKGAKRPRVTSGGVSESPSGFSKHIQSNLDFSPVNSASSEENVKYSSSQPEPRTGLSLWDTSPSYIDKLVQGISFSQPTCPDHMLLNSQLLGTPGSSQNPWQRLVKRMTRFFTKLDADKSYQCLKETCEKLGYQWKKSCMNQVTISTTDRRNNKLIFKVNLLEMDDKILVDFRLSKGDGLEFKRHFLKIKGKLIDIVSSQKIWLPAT
Description: as §1, §2

CHK2 = CHK2 (Homo sapiens, UniProt O96017); settings: read-out: residual activity (%) CHK2
Sequence of CHK2 (O96017 whole entry, species assumed): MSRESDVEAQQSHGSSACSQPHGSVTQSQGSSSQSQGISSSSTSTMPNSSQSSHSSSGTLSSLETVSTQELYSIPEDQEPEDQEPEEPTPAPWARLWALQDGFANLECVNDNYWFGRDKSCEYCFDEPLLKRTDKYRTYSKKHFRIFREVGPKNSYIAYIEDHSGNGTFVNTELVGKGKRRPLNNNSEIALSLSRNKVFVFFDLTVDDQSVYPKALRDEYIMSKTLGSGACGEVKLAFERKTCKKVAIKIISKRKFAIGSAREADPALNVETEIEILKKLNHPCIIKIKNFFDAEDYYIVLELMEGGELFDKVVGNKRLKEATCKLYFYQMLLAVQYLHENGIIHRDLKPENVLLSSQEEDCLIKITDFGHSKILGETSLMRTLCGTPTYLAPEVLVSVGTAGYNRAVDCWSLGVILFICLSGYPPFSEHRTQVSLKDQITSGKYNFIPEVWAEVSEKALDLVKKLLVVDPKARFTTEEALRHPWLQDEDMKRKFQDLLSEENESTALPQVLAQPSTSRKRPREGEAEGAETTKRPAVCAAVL
Description: as §1, §2

CK2 = CK2 (Homo sapiens, UniProt P68400); settings: read-out: residual activity (%) CK2
Sequence of CK2 (P68400 whole entry): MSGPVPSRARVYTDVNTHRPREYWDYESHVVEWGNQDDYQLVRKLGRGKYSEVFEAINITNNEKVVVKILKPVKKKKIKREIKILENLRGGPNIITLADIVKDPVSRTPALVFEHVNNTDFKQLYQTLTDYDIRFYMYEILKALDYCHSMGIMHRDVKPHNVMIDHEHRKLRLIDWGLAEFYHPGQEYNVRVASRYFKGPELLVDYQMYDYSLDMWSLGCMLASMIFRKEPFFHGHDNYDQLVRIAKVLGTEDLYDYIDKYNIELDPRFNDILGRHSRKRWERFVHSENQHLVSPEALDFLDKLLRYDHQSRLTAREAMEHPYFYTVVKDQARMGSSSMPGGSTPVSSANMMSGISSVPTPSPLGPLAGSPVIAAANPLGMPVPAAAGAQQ
Description: as §1, §2

ERK8 = biological target: T2, ERK8 (Homo sapiens, UniProt Q8TD08); settings: read-out: residual activity (%) ERK8
T2 sequence (Q8TD08 1-544): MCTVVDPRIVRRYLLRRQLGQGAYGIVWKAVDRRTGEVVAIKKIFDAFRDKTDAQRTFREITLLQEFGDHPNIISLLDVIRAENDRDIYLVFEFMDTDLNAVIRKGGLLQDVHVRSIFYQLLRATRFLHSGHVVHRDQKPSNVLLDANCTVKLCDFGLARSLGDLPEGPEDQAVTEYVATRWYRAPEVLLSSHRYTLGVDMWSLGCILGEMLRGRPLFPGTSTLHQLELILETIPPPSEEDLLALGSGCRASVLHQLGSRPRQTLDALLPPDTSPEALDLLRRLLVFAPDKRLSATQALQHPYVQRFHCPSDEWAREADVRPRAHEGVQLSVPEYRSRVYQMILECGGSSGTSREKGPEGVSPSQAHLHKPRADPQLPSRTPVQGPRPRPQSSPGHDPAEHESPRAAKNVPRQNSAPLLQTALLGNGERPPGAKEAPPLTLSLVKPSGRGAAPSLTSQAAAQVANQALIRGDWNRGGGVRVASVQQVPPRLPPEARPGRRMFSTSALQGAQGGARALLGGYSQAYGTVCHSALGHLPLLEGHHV
Description: as §1, §2

JNK3 = JNK3 (Homo sapiens, UniProt P53779); settings: read-out: residual activity (%) JNK3
Sequence of JNK3 (P53779 whole entry, species assumed): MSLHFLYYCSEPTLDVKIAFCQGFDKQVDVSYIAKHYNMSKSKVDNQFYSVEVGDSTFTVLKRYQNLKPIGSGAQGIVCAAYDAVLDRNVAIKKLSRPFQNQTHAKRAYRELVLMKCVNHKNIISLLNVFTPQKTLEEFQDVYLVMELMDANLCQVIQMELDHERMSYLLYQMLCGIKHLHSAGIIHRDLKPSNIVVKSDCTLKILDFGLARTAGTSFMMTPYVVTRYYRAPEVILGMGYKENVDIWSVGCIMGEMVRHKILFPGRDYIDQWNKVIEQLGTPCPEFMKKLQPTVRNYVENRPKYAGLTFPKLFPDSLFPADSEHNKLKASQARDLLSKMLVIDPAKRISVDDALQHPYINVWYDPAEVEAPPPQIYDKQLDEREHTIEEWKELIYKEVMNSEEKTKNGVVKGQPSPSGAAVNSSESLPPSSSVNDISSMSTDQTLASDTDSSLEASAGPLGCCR
Description: as §1, §2

Lck = Lck (Homo sapiens, UniProt P06239); settings: read-out: residual activity (%) Lck
Sequence of Lck (P06239 whole entry, species assumed): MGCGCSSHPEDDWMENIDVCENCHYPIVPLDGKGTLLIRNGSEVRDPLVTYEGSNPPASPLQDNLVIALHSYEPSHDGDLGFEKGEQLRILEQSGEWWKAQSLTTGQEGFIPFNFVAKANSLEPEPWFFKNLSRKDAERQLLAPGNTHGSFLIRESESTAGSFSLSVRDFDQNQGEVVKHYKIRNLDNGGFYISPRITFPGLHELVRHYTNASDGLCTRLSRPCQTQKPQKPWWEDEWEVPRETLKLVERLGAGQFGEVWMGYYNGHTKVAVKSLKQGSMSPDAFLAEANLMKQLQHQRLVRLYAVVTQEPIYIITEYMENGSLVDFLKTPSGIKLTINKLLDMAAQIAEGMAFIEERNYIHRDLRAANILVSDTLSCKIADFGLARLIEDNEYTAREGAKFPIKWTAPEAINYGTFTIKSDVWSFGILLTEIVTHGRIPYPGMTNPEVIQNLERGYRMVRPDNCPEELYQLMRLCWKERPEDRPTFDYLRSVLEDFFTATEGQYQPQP
Description: as §1, §2

MAPKAP-K3 = MAPKAP-K3 (Homo sapiens, UniProt Q16644); settings: read-out: residual activity (%) MAPKAP-K3
Sequence of MAPKAP-K3 (Q16644 whole entry, species assumed): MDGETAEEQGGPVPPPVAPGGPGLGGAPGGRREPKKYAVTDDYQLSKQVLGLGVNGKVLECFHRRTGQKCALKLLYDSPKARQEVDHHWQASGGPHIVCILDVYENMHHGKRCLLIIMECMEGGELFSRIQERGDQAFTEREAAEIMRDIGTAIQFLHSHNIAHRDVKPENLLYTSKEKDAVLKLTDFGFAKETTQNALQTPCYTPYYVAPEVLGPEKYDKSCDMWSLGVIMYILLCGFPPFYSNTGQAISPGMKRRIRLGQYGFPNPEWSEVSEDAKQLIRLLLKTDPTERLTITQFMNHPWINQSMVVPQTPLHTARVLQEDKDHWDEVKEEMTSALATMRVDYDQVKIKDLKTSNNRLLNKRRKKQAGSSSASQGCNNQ
Description: as §1, §2

NEK6 = NEK6 (Homo sapiens, UniProt Q9HC98); settings: read-out: residual activity (%) NEK6
Sequence of NEK6 (Q9HC98 whole entry, species assumed): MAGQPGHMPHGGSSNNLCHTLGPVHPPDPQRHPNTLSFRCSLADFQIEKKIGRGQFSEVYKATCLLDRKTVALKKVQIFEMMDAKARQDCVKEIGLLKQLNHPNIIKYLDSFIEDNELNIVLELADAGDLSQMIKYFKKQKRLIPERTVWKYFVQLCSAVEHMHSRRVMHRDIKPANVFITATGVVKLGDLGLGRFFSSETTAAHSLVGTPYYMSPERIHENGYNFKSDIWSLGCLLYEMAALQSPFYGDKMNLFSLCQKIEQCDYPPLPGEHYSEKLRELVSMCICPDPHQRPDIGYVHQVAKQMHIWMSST
Description: as §1, §2

PKD1 = biological target: T3, PKD1 (Homo sapiens, UniProt Q15139); settings: for remaining activity at 1 µM: read-out: residual activity (%) PKD1
T3 sequence (Q15139 1-912): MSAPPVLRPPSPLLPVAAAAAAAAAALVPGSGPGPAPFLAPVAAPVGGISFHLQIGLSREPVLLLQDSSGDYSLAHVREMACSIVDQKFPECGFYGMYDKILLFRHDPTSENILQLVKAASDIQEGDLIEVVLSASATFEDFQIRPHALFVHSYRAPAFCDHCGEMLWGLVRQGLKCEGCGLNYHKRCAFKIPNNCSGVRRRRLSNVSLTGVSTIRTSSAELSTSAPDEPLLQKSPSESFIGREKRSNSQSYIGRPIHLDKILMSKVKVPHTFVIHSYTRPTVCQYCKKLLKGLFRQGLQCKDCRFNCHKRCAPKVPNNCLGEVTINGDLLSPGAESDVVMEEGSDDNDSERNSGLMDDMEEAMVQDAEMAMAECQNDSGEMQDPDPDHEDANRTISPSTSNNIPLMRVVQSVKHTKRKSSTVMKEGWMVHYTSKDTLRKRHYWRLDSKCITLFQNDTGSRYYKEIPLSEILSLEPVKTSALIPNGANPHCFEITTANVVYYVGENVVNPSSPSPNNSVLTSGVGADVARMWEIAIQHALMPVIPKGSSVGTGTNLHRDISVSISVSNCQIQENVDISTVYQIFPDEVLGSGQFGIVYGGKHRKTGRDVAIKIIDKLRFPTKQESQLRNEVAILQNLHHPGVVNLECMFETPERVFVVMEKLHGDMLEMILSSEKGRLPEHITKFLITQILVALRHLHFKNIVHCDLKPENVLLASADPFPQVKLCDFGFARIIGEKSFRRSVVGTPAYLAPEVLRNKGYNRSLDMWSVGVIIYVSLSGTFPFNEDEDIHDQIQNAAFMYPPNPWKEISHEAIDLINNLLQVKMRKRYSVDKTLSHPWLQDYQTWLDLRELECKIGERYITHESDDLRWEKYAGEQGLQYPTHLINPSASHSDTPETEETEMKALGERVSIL
Description: as §1, §2

Sequence of Aurora B (Q96GD4 whole entry): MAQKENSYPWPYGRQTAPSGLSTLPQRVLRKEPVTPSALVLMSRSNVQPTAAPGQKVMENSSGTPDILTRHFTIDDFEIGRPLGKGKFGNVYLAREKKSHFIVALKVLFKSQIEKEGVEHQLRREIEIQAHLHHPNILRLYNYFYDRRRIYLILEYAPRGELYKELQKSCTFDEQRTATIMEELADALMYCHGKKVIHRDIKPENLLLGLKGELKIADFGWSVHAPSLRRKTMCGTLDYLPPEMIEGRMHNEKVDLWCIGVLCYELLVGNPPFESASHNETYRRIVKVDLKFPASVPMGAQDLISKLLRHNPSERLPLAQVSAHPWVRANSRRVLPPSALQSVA

## N=C(N)NCCC[C@@H](NC(=O)[C@@H](CCCNC(=N)N)NC(=O)[C@@H](CCCNC(=N)N)NC(=O)[C@@H](CCCNC(=N)N)NC(=O)[C@@H](CCCNC(=N)N)NC(=O)[C@@H](CCCNC(=N)N)NC(=O)CCCCCNC(=O)[C@H]1O[C@@H](n2cnc3c(N)ncnc32)[C@H](O)[C@@H]1O)C(N)=O [Compound 5, AdcAhx(D-Arg)6-NH2]
Aurora B
  remaining activity at 1 µM: 103%
CAMK-1
  remaining activity at 1 µM: 15%
CHK1
  remaining activity at 1 µM: 16%
CHK2
  remaining activity at 1 µM: 14%
CK2
  remaining activity at 1 µM: 104%
ERK8
  remaining activity at 1 µM: 50%
JNK3
  remaining activity at 1 µM: 91%
Lck
  remaining activity at 1 µM: 70%
MAPKAP-K3
  remaining activity at 1 µM: 67%
NEK6
  remaining activity at 1 µM: 94%
PKD1
  remaining activity at 1 µM: 54%

## N=C(N)NCCC[C@@H](NC(=O)[C@@H](CCCNC(=N)N)NC(=O)[C@@H](CCCNC(=N)N)NC(=O)[C@@H](CCCNC(=N)N)NC(=O)[C@@H](CCCNC(=N)N)NC(=O)[C@@H](CCCNC(=N)N)NC(=O)CCCCCNCCNS(=O)(=O)c1cccc2cnccc12)C(N)=O [Compound 26, H9-Hex(D-Arg)6-NH2]
Aurora B; inhibitor 1 μM, ATP 20 μM
  remaining activity at 1 µM: 53%
CAMK-1; inhibitor 1 μM, ATP 50 μM
  remaining activity at 1 µM: < 10%
CHK1; inhibitor 1 μM, ATP 20 μM
  remaining activity at 1 µM: 31%
CHK2; inhibitor 1 μM, ATP 20 μM
  remaining activity at 1 µM: 22%
CK2; inhibitor 1 μM, ATP 5 μM
  remaining activity at 1 µM: 87%
ERK8; inhibitor 1 μM, ATP 5 μM
  remaining activity at 1 µM: 52%
JNK3; inhibitor 1 μM, ATP 50 μM
  remaining activity at 1 µM: 92%
Lck; inhibitor 1 μM, ATP 50 μM
  remaining activity at 1 µM: 88%
MAPKAP-K3; inhibitor 1 μM, ATP 20 μM
  remaining activity at 1 µM: 69%
NEK6; inhibitor 1 μM, ATP 50 μM
  remaining activity at 1 µM: 100%
PKD1; inhibitor 1 μM, ATP 50 μM
  residual activity (%) PKD1: 9 (±1) %
  remaining activity at 1 µM: < 10%
